Measurements published in the RNAGym collection of RNA variant scans (doi:10.7554/elife.80360).

B1: Hammerhead Ribozyme (parent)
chain: ACCGGAUGUGCUUUCCGGUCUGAUGAGUCCGUGAGGACGAAACAG

Variants of: B1
Assay: self-cleavage, relative activity (ratio to wild type); higher = more cleavage; co-transcriptional

Variant	self-cleavage
ACCUGAUGUGCUUUCCGGUCUGGUGAGUCCGUGAGGACGAAACAG [G4U A23G]	0.303
ACCUGAUGUGCUUUCCGGUCUGCUGAGUCCGUGAGGACGAAACAG [G4U A23C]	0.257
ACCCAAUGUGCUUUCCGGUCUGAUGAGUCCGUGAGGACGAAACAG [G4C G5A]	0.365
ACCCCAUGUGCUUUCCGGUCUGAUGAGUCCGUGAGGACGAAACAG [G4C G5C]	0.327
ACCCUAUGUGCUUUCCGGUCUGAUGAGUCCGUGAGGACGAAACAG [G4C G5U]	0.418
ACCUGAUGUGCUUUCCGGUCUGAUGAGUCCGUGAGGACGAAACAG [G4U]	0.515
ACCCGAUGUGCUUUCCGGUCGGAUGAGUCCGUGAGGACGAAACAG [G4C U21G]	0.239
ACCCGAUGUGCUUUCCGGUCCGAUGAGUCCGUGAGGACGAAACAG [G4C U21C]	0.363
ACCCGAUGUGCUUUCCGGUCAGAUGAGUCCGUGAGGACGAAACAG [G4C U21A]	0.309
ACCCGAUAUGCUUUCCGGUCUGAUGAGUCCGUGAGGACGAAACAG [G4C G8A]	0.543
ACCCGAUUUGCUUUCCGGUCUGAUGAGUCCGUGAGGACGAAACAG [G4C G8U]	0.353
ACCCGAUCUGCUUUCCGGUCUGAUGAGUCCGUGAGGACGAAACAG [G4C G8C]	0.592
ACCCGAUGUGCUUACCGGUCUGAUGAGUCCGUGAGGACGAAACAG [G4C U14A]	0.512
ACCCGAUGUGCUUGCCGGUCUGAUGAGUCCGUGAGGACGAAACAG [G4C U14G]	0.733
ACCCGAUGUGCUUCCCGGUCUGAUGAGUCCGUGAGGACGAAACAG [G4C U14C]	0.475
ACCCGAUGUGCUUUCCGGUCUGAUGAGUCCGUGAGGACGAAACUG [G4C A44U]	0.34
ACCCGAUGUGCUUUCCGGUCUGAUGAGUCCGUGAGGACGAAACGG [G4C A44G]	0.805
ACCCGAUGUGCUUUCCGGUCUGAUGAGUCCGUGAGGACGAAACCG [G4C A44C]	0.422
ACCUGUUGUGCUUUCCGGUCUGAUGAGUCCGUGAGGACGAAACAG [G4U A6U]	0.387
ACCUGGUGUGCUUUCCGGUCUGAUGAGUCCGUGAGGACGAAACAG [G4U A6G]	0.327
ACCUGCUGUGCUUUCCGGUCUGAUGAGUCCGUGAGGACGAAACAG [G4U A6C]	0.282
ACCCGAUGUGCUAUCCGGUCUGAUGAGUCCGUGAGGACGAAACAG [G4C U13A]	1.04
ACCCGAUGUGCUGUCCGGUCUGAUGAGUCCGUGAGGACGAAACAG [G4C U13G]	0.962

Variant	self-cleavage
ACCCGAUGUGCUCUCCGGUCUGAUGAGUCCGUGAGGACGAAACAG [G4C U13C]	0.856
ACCCGAUGUGCUUUCCGGUCUGAUGAGUCCGUGAGGACCAAACAG [G4C G39C]	0.244
ACCCGAUGUGCUUUCCGGUCUGAUGAGUCCGUGAGGACUAAACAG [G4C G39U]	0.293
ACCCGAUGUGCUUUCCGGUCUGAUGAGUCCGUGAGGACAAAACAG [G4C G39A]	0.326
ACCCGAUGUGCUUUCCGGUCUGAUGAGUCCGUGAGGACGGAACAG [G4C A40G]	0.243
ACCCGAUGUGCUUUCCGGUCUGAUGAGUCCGUGAGGACGUAACAG [G4C A40U]	0.255
ACCCGAUGUGCUUUCCGGUCUGAUGAGUCCGUGAGGACGCAACAG [G4C A40C]	0.352
ACCCGAUGUGCUUUCCGGUCUGAUGAGUCCGUGAGGAAGAAACAG [G4C C38A]	0.478
ACCCGAUGUGCUUUCCGGUCUGAUGAGUCCGUGAGGAGGAAACAG [G4C C38G]	0.346
ACCCGAUGUGCUUUCCGGUCUGAUGAGUCCGUGAGGAUGAAACAG [G4C C38U]	0.643
ACCCGAUGUGCUUUCCUGUCUGAUGAGUCCGUGAGGACGAAACAG [G4C G17U]	0.291
ACCCGAUGUGCUUUCCAGUCUGAUGAGUCCGUGAGGACGAAACAG [G4C G17A]	0.298
ACCCGAUGUGCUUUCCCGUCUGAUGAGUCCGUGAGGACGAAACAG [G4C G17C]	0.291
ACCCGAUGUGCUUUCCGGUCUGAUGAGUCCGAGAGGACGAAACAG [G4C U32A]	0.743
ACCCGAUGUGCUUUCCGGUCUGAUGAGUCCGGGAGGACGAAACAG [G4C U32G]	0.324
ACCCGAUGUGCUUUCCGGUCUGAUGAGUCCGCGAGGACGAAACAG [G4C U32C]	0.736
ACCCGAUGUGCUUUCCGGUCUGAUGAGGCCGUGAGGACGAAACAG [G4C U28G]	0.326
ACCCGAUGUGCUUUCCGGUCUGAUGAGACCGUGAGGACGAAACAG [G4C U28A]	0.297
ACCCGAUGUGCUUUCCGGUCUGAUGAGCCCGUGAGGACGAAACAG [G4C U28C]	0.331
ACCCGAUGUGCUUUCCGGUAUGAUGAGUCCGUGAGGACGAAACAG [G4C C20A]	0.244
ACCCGAUGUGCUUUCCGGUUUGAUGAGUCCGUGAGGACGAAACAG [G4C C20U]	0.441
ACCCGAUGUGCUUUCCGGUGUGAUGAGUCCGUGAGGACGAAACAG [G4C C20G]	0.266
ACCCGAUGUGCUUUCCGGUCUGAUGAGUCCGUGAGGACGAAGCAG [G4C A42G]	0.359

Variant	self-cleavage
ACCCGAUGUGCUUUCCGGUCUGAUGAGUCCGUGAGGACGAAUCAG [G4C A42U]	0.297
ACCCGAUGUGCUUUCCGGUCUGAUGAGUCCGUGAGGACGAACCAG [G4C A42C]	0.296
ACCCGAUGUGCUUUCCGGUCUGAUGAGUCCGUGACGACGAAACAG [G4C G35C]	0.341
ACCCGAUGUGCUUUCCGGUCUGAUGAGUCCGUGAUGACGAAACAG [G4C G35U]	0.426
ACCCGAUGUGCUUUCCGGUCUGAUGAGUCCGUGAAGACGAAACAG [G4C G35A]	0.297
ACCCGAUGUGCUUUCCGGUCUGAUGAGUCCGUCAGGACGAAACAG [G4C G33C]	0.742
ACCCGAUGUGCUUUCCGGUCUGAUGAGUCCGUAAGGACGAAACAG [G4C G33A]	0.879
ACCCGAUGUGCUUUCCGGUCUGAUGAGUCCGUUAGGACGAAACAG [G4C G33U]	0.837
ACCCGAUGUGCGUUCCGGUCUGAUGAGUCCGUGAGGACGAAACAG [G4C U12G]	0.599
ACCCGAUGUGCCUUCCGGUCUGAUGAGUCCGUGAGGACGAAACAG [G4C U12C]	0.513
ACCCGAUGUGCAUUCCGGUCUGAUGAGUCCGUGAGGACGAAACAG [G4C U12A]	0.766
ACCCGAUGUGCUUUCCGGUCUCAUGAGUCCGUGAGGACGAAACAG [G4C G22C]	0.241
ACCCGAUGUGCUUUCCGGUCUAAUGAGUCCGUGAGGACGAAACAG [G4C G22A]	0.297
ACCCGAUGUGCUUUCCGGUCUUAUGAGUCCGUGAGGACGAAACAG [G4C G22U]	0.238
ACCCGAUGUGAUUUCCGGUCUGAUGAGUCCGUGAGGACGAAACAG [G4C C11A]	0.67
ACCCGAUGUGGUUUCCGGUCUGAUGAGUCCGUGAGGACGAAACAG [G4C C11G]	0.767
ACCCGAUGUGUUUUCCGGUCUGAUGAGUCCGUGAGGACGAAACAG [G4C C11U]	0.331
ACCCGAUGAGCUUUCCGGUCUGAUGAGUCCGUGAGGACGAAACAG [G4C U9A]	0.613
ACCCGAUGCGCUUUCCGGUCUGAUGAGUCCGUGAGGACGAAACAG [G4C U9C]	0.704
ACCCGAUGGGCUUUCCGGUCUGAUGAGUCCGUGAGGACGAAACAG [G4C U9G]	0.573
ACCCGAUGUGCUUUCCGGUCUGAUGAGUGCGUGAGGACGAAACAG [G4C C29G]	0.347
ACCCGAUGUGCUUUCCGGUCUGAUGAGUACGUGAGGACGAAACAG [G4C C29A]	0.317
ACCCGAUGUGCUUUCCGGUCUGAUGAGUUCGUGAGGACGAAACAG [G4C C29U]	0.567

Variant	self-cleavage
ACCCGAUGUGCUUUCCGGGCUGAUGAGUCCGUGAGGACGAAACAG [G4C U19G]	0.322
ACCCGAUGUGCUUUCCGGCCUGAUGAGUCCGUGAGGACGAAACAG [G4C U19C]	0.297
ACCCGAUGUGCUUUCCGGACUGAUGAGUCCGUGAGGACGAAACAG [G4C U19A]	0.283
ACCCGAUGUGCUUUCCGGUCUGAUGACUCCGUGAGGACGAAACAG [G4C G27C]	0.412
ACCCGAUGUGCUUUCCGGUCUGAUGAUUCCGUGAGGACGAAACAG [G4C G27U]	0.326
ACCCGAUGUGCUUUCCGGUCUGAUGAAUCCGUGAGGACGAAACAG [G4C G27A]	0.476
ACCCGAUGUGCUUUCCGGUCUGAUGAGUCCGUGAGUACGAAACAG [G4C G36U]	0.281
ACCCGAUGUGCUUUCCGGUCUGAUGAGUCCGUGAGAACGAAACAG [G4C G36A]	0.282
ACCCGAUGUGCUUUCCGGUCUGAUGAGUCCGUGAGCACGAAACAG [G4C G36C]	0.247
ACCCGAUGUGCUUUCCGGUCUGAUGAGUCCGUGAGGACGAAAGAG [G4C C43G]	0.315
ACCCGAUGUGCUUUCCGGUCUGAUGAGUCCGUGAGGACGAAAUAG [G4C C43U]	0.298
ACCCGAUGUGCUUUCCGGUCUGAUGAGUCCGUGAGGACGAAAAAG [G4C C43A]	0.285
ACCCGAUGUGCUUUCCGGUCUGAUAAGUCCGUGAGGACGAAACAG [G4C G25A]	0.307
ACCCGAUGUGCUUUCCGGUCUGAUUAGUCCGUGAGGACGAAACAG [G4C G25U]	0.289
ACCCGAUGUGCUUUCCGGUCUGAUCAGUCCGUGAGGACGAAACAG [G4C G25C]	0.289
ACCCGAUGUGCUUUCCGGUCUGAUGAGUCCGUGAGGACGACACAG [G4C A41C]	0.316
ACCCGAUGUGCUUUCCGGUCUGAUGAGUCCGUGAGGACGAUACAG [G4C A41U]	0.267
ACCCGAUGUGCUUUCCGGUCUGAUGAGUCCGUGAGGACGAGACAG [G4C A41G]	0.255
ACCCGAUGUACUUUCCGGUCUGAUGAGUCCGUGAGGACGAAACAG [G4C G10A]	0.662
ACCCGAUGUUCUUUCCGGUCUGAUGAGUCCGUGAGGACGAAACAG [G4C G10U]	0.722
ACCCGAUGUCCUUUCCGGUCUGAUGAGUCCGUGAGGACGAAACAG [G4C G10C]	0.436
ACCCGAUGUGCUUUCCGGUCUGAUGAGUCCGUGAGGACGAAACAC [G4C G45C]	0.4
ACCCGAUGUGCUUUCCGGUCUGAUGAGUCCGUGAGGACGAAACAA [G4C G45A]	0.355

Variant	self-cleavage
ACCCGAUGUGCUUUCCGGUCUGAUGAGUCCGUGAGGACGAAACAU [G4C G45U]	0.4
ACCCGAUGUGCUUUCCGCUCUGAUGAGUCCGUGAGGACGAAACAG [G4C G18C]	0.251
ACCCGAUGUGCUUUCCGUUCUGAUGAGUCCGUGAGGACGAAACAG [G4C G18U]	0.284
ACCCGAUGUGCUUUCCGAUCUGAUGAGUCCGUGAGGACGAAACAG [G4C G18A]	0.303
ACCCGAUGUGCUUUCCGGUCUGAUGAGUCUGUGAGGACGAAACAG [G4C C30U]	0.703
ACCCGAUGUGCUUUCCGGUCUGAUGAGUCAGUGAGGACGAAACAG [G4C C30A]	0.594
ACCCGAUGUGCUUUCCGGUCUGAUGAGUCGGUGAGGACGAAACAG [G4C C30G]	0.371
ACCCGAUGUGCUUUACGGUCUGAUGAGUCCGUGAGGACGAAACAG [G4C C15A]	0.524
ACCCGAUGUGCUUUGCGGUCUGAUGAGUCCGUGAGGACGAAACAG [G4C C15G]	0.929
ACCCGAUGUGCUUUUCGGUCUGAUGAGUCCGUGAGGACGAAACAG [G4C C15U]	0.557
ACCCGAUGUGCUUUCCGGUCUGAUGAGUCCAUGAGGACGAAACAG [G4C G31A]	0.939
ACCCGAUGUGCUUUCCGGUCUGAUGAGUCCCUGAGGACGAAACAG [G4C G31C]	0.768
ACCCGAUGUGCUUUCCGGUCUGAUGAGUCCUUGAGGACGAAACAG [G4C G31U]	0.748
ACCCGAUGUGCUUUCCGGUCUGAAGAGUCCGUGAGGACGAAACAG [G4C U24A]	0.777
ACCCGAUGUGCUUUCCGGUCUGACGAGUCCGUGAGGACGAAACAG [G4C U24C]	0.631
ACCCGAUGUGCUUUCCGGUCUGAGGAGUCCGUGAGGACGAAACAG [G4C U24G]	0.599
ACCCGAUGUGCUUUCUGGUCUGAUGAGUCCGUGAGGACGAAACAG [G4C C16U]	1.39
ACCCGAUGUGCUUUCAGGUCUGAUGAGUCCGUGAGGACGAAACAG [G4C C16A]	1.65
ACCCGAUGUGCUUUCGGGUCUGAUGAGUCCGUGAGGACGAAACAG [G4C C16G]	1.35
ACCCGAGGUGCUUUCCGGUCUGAUGAGUCCGUGAGGACGAAACAG [G4C U7G]	0.768
ACCCGACGUGCUUUCCGGUCUGAUGAGUCCGUGAGGACGAAACAG [G4C U7C]	0.353
ACCCGAAGUGCUUUCCGGUCUGAUGAGUCCGUGAGGACGAAACAG [G4C U7A]	1.03
